Assay results: PMC10849960 (2023)
Ends that are not written are not given here.

T1: Mcl-1 (UniProt Q07820 1-350)
T1 chain: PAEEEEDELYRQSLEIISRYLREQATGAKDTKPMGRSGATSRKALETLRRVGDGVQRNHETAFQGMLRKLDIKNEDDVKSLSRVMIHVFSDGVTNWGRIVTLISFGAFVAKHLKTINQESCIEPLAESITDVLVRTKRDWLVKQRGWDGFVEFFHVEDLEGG


How the values were obtained:
Mcl-1 [1] = molecular target: T1, Mcl-1; assay: ITC
Mcl-1 [2] = molecular target: T1, Mcl-1; assay: FP
411 [3] = assay: FP
29 [4] = assay: FP
361 [5] = assay: FP
[6] = molecular target: Hallucinated Bid binder (7 nM); assay: ITC
411 [7] = assay: ITC
29 [8] = assay: ITC
361 [9] = assay: ITC; 10 °C
[10] = molecular target: best parametrically designed PTH binder; assay: split NanoBiT

Row | Kd (Mcl-1 [1]) [nM] | Kd (Mcl-1 [2]) [nM] | Kd 411 [3] [nM] | Kd 29 [4] [nM] | Kd 361 [5] [nM] | Kd [6] [nM] | Kd 411 [7] [nM] | Kd 29 [8] [nM] | Kd 361 [9] [nM] | Kd [10] [nM] | Binder
1 | 770 | 106 | 23 | 40 | 490 | 25 | 410 | 180 | 1200 | – | SESQEDIIRNIARHLAQVGDSMDRSIPPGLVNGL (also: fluorescently labelled (label and position not shown)) [Bid BH3 peptide]
2 | – | – | – | – | – | – | – | – | – | > 1000 | SVSEIQLMHNLGKHLNSMERVEWLRKKLQDVHNF (also: fluorescently labelled (label and position not shown)) [parathyroid hormone (PTH)]
